Columns and labels:
S. Aureus biofilms [1] = conditions: existing data; cited from earlier work
S. Aureus biofilms [2] = test: Preliminary assessment of amylases on biofilms: reduction of existing biofilm; assay type: cell-based; conditions: for Reduces Biofilm: Table 1, preliminary assessment of activity on Biofilms
Excerpt: (§1) Non-limiting examples of amylases contemplated by the disclosure and their preliminary assessment of their activity on Biofilms is listed on Table 1: […]

S. Aureus biofilms [3] = test: Preliminary assessment of amylases on biofilms: prohibition of biofilm growth; assay type: cell-based; conditions: Table 1, preliminary assessment of activity on Biofilms
Excerpt: as §1

B1: β-Amylase from sweet potato: β-Amylase from sweet potato, Sigma Aldrich research grade (protein, UniProt P10537 2-499, looked up)
Beta-amylase: APIPGVMPIGNYVSLYVMLPLGVVNADNVFPDKEKVEDELKQVKAGGCDGVMVDVWWGIIEAKGPKQYDWSAYRELFQLVKKCGLKIQAIMSFHQCGGNVGDAVFIPIPQWILQIGDKNPDIFYTNRAGNRNQEYLSLGVDNQRLFQGRTALEMYRDFMESFRDNMADFLKAGDIVDIEVGCGAAGELRYPSYPETQGWVFPGIGEFQCYDKYMVADWKEAVKQAGNADWEMPGKGAGTYNDTPDKTEFFRPNGTYKTDMGKFFLTWYSNKLIIHGDQVLEEANKVFVGLRVNIAAKVSGIHWWYNHVSHAAELTAGFYNVAGRDGYRPIARMLARHHATLNFTCLEMRDSEQPAEAKSAPQELVQQVLSSGWKEYIDVAGENALPRYDATAYNQMLLNVRPNGVNLNGPPKLKMSGLTYLRLSDDLLQTDNFELFKKFVKKMHADLDPSPNAISPAVLERSNSAITIDELMEATKGSRPFPWYDVTDMPVDGSNPFD
For B1, the “in-vitro effectiveness at the inhibition and reduction of S. Aureus biofilms” value (S. Aureus biofilms [1]) is given as “certain in-vitro effectiveness”, the “Reduces Biofilm” value (S. Aureus biofilms [2]) is given as “No” and the “Prohibits Biofilm Growth” value (S. Aureus biofilms [3]) is given as “Partially”.

B2: α-Amylase from human saliva: α-amylase from human saliva (Sigma, catalog #A1031) (protein, UniProt P0DUB6 16-511, looked up)
Alpha-amylase 1A: QYSSNTQQGRTSIVHLFEWRWVDIALECERYLAPKGFGGVQVSPPNENVAIHNPFRPWWERYQPVSYKLCTRSGNEDEFRNMVTRCNNVGVRIYVDAVINHMCGNAVSAGTSSTCGSYFNPGSRDFPAVPYSGWDFNDGKCKTGSGDIENYNDATQVRDCRLSGLLDLALGKDYVRSKIAEYMNHLIDIGVAGFRIDASKHMWPGDIKAILDKLHNLNSNWFPEGSKPFIYQEVIDLGGEPIKSSDYFGNGRVTEFKYGAKLGTVIRKWNGEKMSYLKNWGEGWGFMPSDRALVFVDNHDNQRGHGAGGASILTFWDARLYKMAVGFMLAHPYGFTRVMSSYRWPRYFENGKDVNDWVGPPNDNGVTKEVTINPDTTCGNDWVCEHRWRQIRNMVNFRNVVDGQPFTNWYDNGSNQVAFGRGNRGFIVFNNDDWTFSLTLQTGLPAGTYCDVISGDKINGNCTGIKIYVSDDGKAHFSISNSAEDPFIAIHAESKL
For B2, the “in-vitro effectiveness at the inhibition and reduction of S. Aureus biofilms” value (S. Aureus biofilms [1]) is given as “certain in-vitro effectiveness”, the “Reduces Biofilm” value (S. Aureus biofilms [2]) is given as “No” and the “Prohibits Biofilm Growth” value (S. Aureus biofilms [3]) is given as “Yes”.

B3: α-Amylase from Bacillus subtilis: α-amylase from Bacillus subtilis (Sigma, catalog #10070) (protein, UniProt P00691 42-659, looked up)
Alpha-amylase: LTAPSIKSGTILHAWNWSFNTLKHNMKDIHDAGYTAIQTSPINQVKEGNQGDKSMSNWYWLYQPTSYQIGNRYLGTEQEFKEMCAAAEEYGIKVIVDAVINHTTSDYAAISNEVKSIPNWTHGNTQIKNWSDRWDVTQNSLLGLYDWNTQNTQVQSYLKRFLDRALNDGADGFRFDAAKHIELPDDGSYGSQFWPNITNTSAEFQYGEILQDSASRDAAYANYMDVTASNYGHSIRSALKNRNLGVSNISHYASDVSADKLVTWVESHDTYANDDEESTWMSDDDIRLGWAVIASRSGSTPLFFSRPEGGGNGVRFPGKSQIGDRGSALFEDQAITAVNRFHNVMAGQPEELSNPNGNNQIFMNQRGSHGVVLANAGSSSVSINTATKLPDGRYDNKAGAGSFQVNDGKLTGTINARSVAVLYPDDIAKAPHVFLENYKTGVTHSFNDQLTITLRADANTTKAVYQINNGPETAFKDGDQFTIGKGDPFGKTYTIMLKGTNSDGVTRTEKYSFVKRDPASAKTIGYQNPNHWSQVNAYIYKHDGSRVIELTGSWPGKPMTKNADGIYTLTLPADTDTTNAKVIFNNGSAQVPGQNQPGFDYVLNGLYNDSGLSGSLPH
For B3, the “in-vitro effectiveness at the inhibition and reduction of S. Aureus biofilms” value (S. Aureus biofilms [1]) is given as “certain in-vitro effectiveness”, the “Reduces Biofilm, time” value (S. Aureus biofilms [2]; Table 1, reduces biofilm only after this time) is given as no less than 3 h and the “Prohibits Biofilm Growth” value (S. Aureus biofilms [3]) is given as “Yes”.

Source: patent US20260273029A1, “DRY EYE TREATMENT” (Inoculus Ventures, LLC, priority 2022, published 2026)
